In the assay the target is T1, EpCAM (epithelial cell adhesion molecule) on the surface of HT29 colon cancer cells (UniProt P16422 24-314, limits assumed).
T1 construct: whole, on cells; HT29 is a human cell line
T1 sequence (looked up): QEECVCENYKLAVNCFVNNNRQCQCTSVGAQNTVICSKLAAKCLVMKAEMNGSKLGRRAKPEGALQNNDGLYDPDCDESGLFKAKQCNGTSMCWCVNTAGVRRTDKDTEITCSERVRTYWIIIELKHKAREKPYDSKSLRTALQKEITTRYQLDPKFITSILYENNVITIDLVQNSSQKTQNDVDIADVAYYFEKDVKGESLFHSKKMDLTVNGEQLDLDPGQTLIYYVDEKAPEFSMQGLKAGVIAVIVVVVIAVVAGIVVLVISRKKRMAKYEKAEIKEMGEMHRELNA
Put plainly: confocal fluorescence microscopy of HT29 spheroids with FITC-Ep114/PEG/gold nanoparticles (PEG ratios 100/1, 200/1, 300/1). As to the method:
A colon cancer cell line HT29 was used to conduct a cellular uptake test. First, by using 96 holes type culture plate for spheroids, EZ-Sphere™ (Asahi Glass Co., Ltd.), spheroid of HT29 cells was formed.
Specifically, HT29, 4×10⁵ cells were suspended in a culture medium in which 20 ng/ml of human EGF (manufactured by Miltenyi Biotec, K.K.), 20 ng/ml of human FGF-2 (manufactured by Miltenyi Biotec K.K.), 1/50 amount of B-27 supplement×50 (manufactured by GIBCO), and 1/100 amount of Penicillin-Streptomycin Solution×100 (manufactured by Wako Pure Chemical Industries, Ltd.) were added to 3 ml of D-MEM/F-12 medium (Dulbecco's Modified Eagle Medium: Nutrient Mixture F-12 1:1 Mixture, manufactured by GIBCO). The suspension was dispensed to each well of 200 μl, and was cultured in CO₂ incubator at 37° C. for 72 hours.
Then, a part of the spheroids (approximately 20 μl) and the gold particle-peptide complex were placed on a glass bottom dish (D110300, Matsunami Glass Ind., Ltd.), and irradiated laser of 488 nm with 40 magnification objective lens by using an inverted confocal laser microscope (FLUOVIEW FV1000IX81 type, manufactured by Olympus Corporation), and observed using a filter for Alexa488.

Primed or numbered codes have the meaning given here. Ends that are not written are not given here. FITC′ = fluorescein isothiocyanate

B1: EpCAM-binding peptide Ep114 (FITC-labelled), bound to PEG-covered gold nanoparticles (peptide)
peptide: {FITC′}-KHLQCVRNICWSGGK
modifications: cysteine pairing not given here; also: bound to PEG-covered gold nanoparticles
notes: In the assay the peptide covered approx. 15 nm gold nanoparticles that were partially covered with mPEG-SH 5k (PEG:particle ratios 100/1, 200/1, 300/1; 2000 peptides per particle); also called EP114 peptide
With B1, the binding result is on record as “binds”.

(Values after US20160258940A1 (IMRA AMERICA, published 2016).)
